From patent publication US20110091971A1, “Differentiation of Pluripotent Stem Cells” (priority 2008, published 2011)
Changes are numbered by the printed parent chain.

B1: ACTN6: activin A variant peptide, SEQ ID 7 (protein)
chain: GLECDGKVNLCCKKQWFVSFKDIGWNDWIIAPSGYHANRCSGKCPSHIAGTSGSSLSFHSTVINHYRMRGHSPFADMGACCIPTKLRPMSMLYYDDGQNIIKKDIQNMIVEECGCS
modifications: Sytnthetic Construct
B2: ACTN5: activin A variant peptide, SEQ ID 6 (protein)
chain: B1 chain with L10Y, W16N, R39E, A75S, D76N, M77L
B3: ACTN27: activin A variant peptide, SEQ ID 28 (protein)
chain: B1 chain with W16L, R39H, S41D, D76N, M77R
B4: ACTN15: activin A variant peptide, SEQ ID 16 (protein)
chain: B1 chain with W16D, K43L, A75S, D76N, A79S
B5: ACTN42: activin A variant peptide, SEQ ID 43 (protein)
chain: B1 chain with L10Y, W16D, R39K, A75S, A79S
B6: ACTN36: activin A variant peptide, SEQ ID 37 (protein)
chain: B1 chain with W16D, D76N, I82V
B7: ACTN49: activin A variant peptide, SEQ ID 50 (protein)
chain: B1 chain with W16D, S41D, K43L, A75S, A79S, I82V
B8: ACTN13: activin A variant peptide, SEQ ID 14 (protein)
chain: B1 chain with W16D, R39K, A75S, A79S
B9: ACTN46: activin A variant peptide, SEQ ID 47 (protein)
chain: B1 chain with W16N, R39E, S41G, K43L, F74H, D76N, M77R
B10: ACTN40: activin A variant peptide, SEQ ID 41 (protein)
chain: B1 chain with W16L, R39H, S41A, K43L, A75S, D76N, A79S, I82V
B11: ACTN60: activin A variant peptide, SEQ ID 61 (protein)
chain: GLECDGKVNICCKKQSFGQTKDIGWNDWIIAPSGYHGGGCSGECPSHIAGTSGSSLSFHSTVINHYRMRGHSPWANLKSCCAPTKLRPMSMLYYDDGQNIIKKDIQNMVVEECGCV
B12: ACTN72: activin A variant peptide, SEQ ID 73 (protein)
chain: B11 chain with S16L, T20A, G39S, S41T, W74N, A82S, V116T
B13: ACTN50: activin A variant peptide, SEQ ID 51 (protein)
chain: B11 chain with S16L, Q19R, W74V, A82S, V109K, V116T
B14: ACTN77: activin A variant peptide, SEQ ID 78 (protein)
chain: B11 chain with S16M, Q19K, T20A, S41T, A82S, V116T
B15: ACTN91: activin A variant peptide, SEQ ID 92 (protein)
chain: B11 chain with Q19R, A82S, V116T
B16: ACTN56: activin A variant peptide, SEQ ID 57 (protein)
chain: B11 chain with T20A, G39S, S41T, W74F
B17: ACTN74: activin A variant peptide, SEQ ID 75 (protein)
chain: B11 chain with Q19R, T20A, S41T, W74F, A82S, N107G, V116T
B18: ACTN81: activin A variant peptide, SEQ ID 82 (protein)
chain: B11 chain with S16L, Q19K, S41T, W74V, A82S, N107R, V116T
B19: ACTN61: activin A variant peptide, SEQ ID 62 (protein)
chain: B11 chain with S16L, G39S, S41T, W74N, A82S, V109K, V116T
B20: ACTN78: activin A variant peptide, SEQ ID 79 (protein)
chain: B11 chain with S16L, T20A, W74V, A82S, V116T
B21: ACTN69: activin A variant peptide, SEQ ID 70 (protein)
chain: B11 chain with Q19K, S41T, W74F, A82S, N107Q, V116T
B22: ACTN65: activin A variant peptide, SEQ ID 66 (protein)
chain: B11 chain with G39S, W74F, A82S, N107G, V109K, V116T
B23: ACTN51: activin A variant peptide, SEQ ID 52 (protein)
chain: B11 chain with W74F, A82S, N107R, V116T

tested on: H1 or H9 human embryonic stem cells; test: Activin A bioassay: differentiation of human embryonic stem cells to definitive endoderm, cell number and SOX17 intensity by high content analysis (96-well, four days); assay type: cell-based; details: supernatant concentration 1x, assay dilution 1:20;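 for Cell Number average: Raw total cell count per well from high content imaging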;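 for Sox 17 Intensity average: total fluorescence of the cell multiplied by cell area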
Outline: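 Read-out was cell count and integrated SOX17 immunofluorescence by high-content imaging, with each well divided by the mean of the 100 ng/ml activin A control. Over the four-day culture, test samples were given in DMEM:F12 with 0.5% FCS plus 20 ng/ml Wnt3a for the first two days and in 2% FCS alone for the last two. Cells were H1 or H9 hESC clusters grown on Matrigel.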

| Molecule | Cell Number average | Sox 17 Intensity average |
| --- | --- | --- |
| B1 | 939 | 1.234E+07 |
| B2 | 1261 | 1.111E+07 |

same assay, conditions: supernatant concentration 1x, assay dilution 1:20; control = R&D Sys Activin A 100 ng/ml on same plate

| Molecule | Sox 17 Intensity % of control [%] |
| --- | --- |
| B1 | 6.7 |
| B2 | 6.0 |

same assay, conditions: supernatant concentration 10x, assay dilution 1:20

| Molecule | Cell Number average | Sox 17 Intensity average |
| --- | --- | --- |
| B1 | 2359 | 2.272E+07 |
| B2 | 1396 | 1.031E+07 |

same assay, conditions: supernatant concentration 10x, assay dilution 1:20; assay plates #007, #009, #010

| Molecule | Cell Number average | Sox 17 Intensity average |
| --- | --- | --- |
| B3 | 6664 | 1.39E+07 |
| B4 | 22700 | 2.89E+07 |
| B5 | 9937 | 3.45E+06 |
| B6 | 24664 | 2.60E+07 |
| B7 | 10076 | 1.60E+07 |
| B8 | 19861 | 2.78E+07 |
| B9 | 20757 | 1.99E+07 |
| B10 | 11321 | 1.21E+08 |
| B11 | 8303 | 5.90E+05 |
| B12 | 14638 | 3.44E+06 |
| B13 | 22171 | 1.72E+07 |
| B14 | 17696 | 2.82E+07 |
| B15 | 17043 | 1.12E+07 |
| B16 | 23413 | 2.79E+07 |
| B17 | 15049 | 3.30E+06 |
| B18 | 19897 | 1.60E+07 |
| B19 | 15268 | 1.70E+06 |
| B20 | 12585 | 1.11E+06 |
| B21 | 20178 | 2.73E+07 |
| B22 | 22058 | 3.23E+07 |
| B23 | 21780 | 1.85E+07 |

same assay, conditions: supernatant concentration 10x, assay dilution 1:20; control = R&D Sys Activin A 100 ng/ml on same plate

| Molecule | Sox 17 Intensity % of control [%] |
| --- | --- |
| B3 | 55.7 |
| B4 | 20.5 |
| B1 | 12.4 |
| B5 | 13.8 |
| B6 | 18.4 |
| B7 | 11.3 |
| B8 | 19.7 |
| B9 | 14.1 |
| B2 | 5.6 |
| B10 | 85.6 |
| B11 | 2.4 |
| B12 | 13.8 |
| B13 | 12.2 |
| B14 | 20.0 |
| B15 | 7.9 |
| B16 | 19.8 |
| B17 | 13.2 |
| B18 | 11.4 |
| B19 | 6.8 |
| B20 | 4.4 |
| B21 | 19.4 |
| B22 | 22.9 |
| B23 | 13.1 |

same assay, conditions: supernatant concentration 10x, assay dilution 1:40

| Molecule | Cell Number average | Sox 17 Intensity average |
| --- | --- | --- |
| B1 | 1790 | 1.426E+07 |
| B2 | 1382 | 1.311E+07 |

same assay, conditions: supernatant concentration 10x, assay dilution 1:40; control = R&D Sys Activin A 100 ng/ml on same plate

| Molecule | Sox 17 Intensity % of control [%] |
| --- | --- |
| B1 | 7.8 |
| B2 | 7.1 |

same assay, conditions: supernatant concentration 50x, assay dilution 1:20; assay plates #008, #009

| Molecule | Cell Number average | Sox 17 Intensity average |
| --- | --- | --- |
| B3 | 6857 | 2.82E+07 |
| B5 | 7805 | 7.53E+06 |
| B11 | 10603 | 3.73E+06 |
| B12 | 16810 | 6.51E+06 |
| B17 | 16143 | 1.03E+07 |
| B19 | 15256 | 7.18E+06 |
| B20 | 16301 | 5.64E+06 |

same assay, conditions: supernatant concentration 50x, assay dilution 1:20; control = R&D Sys Activin A 100 ng/ml on same plate

| Molecule | Sox 17 Intensity % of control [%] |
| --- | --- |
| B3 | 113.1 |
| B5 | 30.2 |
| B11 | 15.0 |
| B12 | 26.1 |
| B17 | 41.3 |
| B19 | 28.8 |
| B20 | 22.6 |
